Results on 18 sequences are retold here after the Immune Epitope Database (IEDB).

In experiment [1] the target is HLA-B*40:01. Put plainly: IEDB peptide-MHC binding, purified MHC/competitive/radioactivity; ≥ and ≤ were set here for values at or beyond the usual limits of such assays.
Experiment [2] has as its target HLA-B*40:02. The description is as above.
Experiment [3] has as its target HLA-B*44:03. The description is as above.
Experiment [4] deals with HLA-B*45:01. The description is as above.
For experiment [5], the target named is HLA-B*44:02. The description is as above.
For experiment [6], the target named is HLA-B*18:01. The experiment can be described thus: IEDB peptide-MHC binding, purified MHC/competitive/radioactivity; filed as Kd, often an IC50 or EC50 that approximates it; ≥ and ≤ were set here for values at or beyond the usual limits of such assays. Particulars: source organism: Hepatitis B virus.
Experiment [7] has as its target HLA-B*18:01. The experiment can be described thus: IEDB peptide-MHC binding, purified MHC/competitive/radioactivity; ≥ and ≤ were set here for values at or beyond the usual limits of such assays.
In experiment [8] the target is HLA-B*45:01. The experiment can be described thus: IEDB peptide-MHC binding, purified MHC/competitive/radioactivity; filed as Kd, often an IC50 or EC50 that approximates it; ≥ and ≤ were set here for values at or beyond the usual limits of such assays.
For experiment [9], the target named is HLA-B*40:02. The description is as above. Particulars: source organism: Plasmodium falciparum.
Experiment [10] deals with HLA-B*40:01. Described as above. Particulars: source organism: Hepatitis B virus.
Setting [11] is: source organism: Hepatitis C virus (isolate HCV-K3a/650).
Where [12] appears, read: source organism: Hepatitis B virus.
[13] abbreviates: source organism: Human immunodeficiency virus 1.
Where [14] appears, read: source organism: Plasmodium falciparum.

As a reminder, the IC50 is the concentration that inhibits the measured activity by half. With AEAALENLV, the concentration for half-maximal inhibition (IC50) in experiment [1] (setting [11]) turned out to be 245 nM; in experiment [2] (setting [11]) it was 107 nM; in experiment [3] (setting [11]) it was 309 nM; in experiment [4] (setting [11]), 35 nM.
Turning to AELLAACF, the IC50 in experiment [1] (setting [12]) was 734 nM; in experiment [2] (setting [12]), 93 nM; in experiment [5] (setting [12]), 9.3 nM; in [3] (setting [12]), 27 nM; in [4] (setting [12]) it was 247 nM.
By Kd is commonly meant the equilibrium constant for the complex coming apart. Take AELLAACFA: the 50% inhibitory concentration (IC50) is 585 nM in experiment [1] (setting [12]); 50 nM in experiment [2] (setting [12]); 332 nM in [5] (setting [12]); 59 nM in [3] (setting [12]); 6.6 nM in experiment [4] (setting [12]). For the same sequence, the dissociation constant Kd in experiment [6] turned out to be 13500 nM.
With AENLWVTVY, the concentration for half-maximal inhibition (IC50) came to 51 nM in experiment [7] (setting [13]); 3370 nM in experiment [1] (setting [13]); 90 nM in experiment [2] (setting [13]); 66 nM in experiment [5] (setting [13]); 160 nM in [3] (setting [13]); 68 nM in experiment [4] (setting [13]).
With AENLYVTVF, the IC50 in [1] (setting [13]) was found to be 17 nM; in [2] (setting [13]), 3.1 nM; in experiment [5] (setting [13]), 39 nM; in experiment [3] (setting [13]), 47 nM; in experiment [4] (setting [13]) it was 69 nM.
Take DEFKPIVQY: the results for the IC50 in [7] (setting [14]), in experiment [5] (setting [14]) and in experiment [3] (setting [14]) were 3.9 nM, 12 nM and 401 nM, respectively.
With DEVDLYLLM, the 50% inhibitory concentration (IC50) in [7] (setting [14]) was 17 nM; in experiment [1] (setting [14]), 2920 nM; in [2] (setting [14]), 1020 nM; in [5] (setting [14]), 107 nM; in experiment [3] (setting [14]), 84 nM.
On to GEIPFYGKAI, for which the results for the IC50 in [1] (setting [11]), in [2] (setting [11]) and in [3] (setting [11]) were 146 nM, 87 nM and 113 nM, respectively. In experiment [8] (setting [11]), the Kd was 5400 nM.
As for IEAEVIPA, the IC50 was 61 nM in experiment [7] (setting [13]); 5950 nM in [1] (setting [13]); 62 nM in experiment [2] (setting [13]); 859 nM in experiment [5] (setting [13]); 6400 nM in experiment [3] (setting [13]). The Kd in experiment [8] (setting [13]) is 347 nM.
With NELNYDNAGI, the IC50 turned out to be 4610 nM in experiment [7] (setting [14]); 4130 nM in [1] (setting [14]); 105 nM in [5] (setting [14]); 72 nM in experiment [3] (setting [14]); 457 nM in [4] (setting [14]). Besides, the Kd in [9] was at least 23600 nM.
For the sequence NETPGIRYQY, the 50% inhibitory concentration (IC50) is 179 nM in experiment [7] (setting [13]); at least 20000 nM in [1] (setting [13]); at least 20000 nM in experiment [2] (setting [13]); 75 nM in experiment [5] (setting [13]); 62 nM in experiment [3] (setting [13]). For the same sequence, the Kd in experiment [8] (setting [13]) was determined as 10600 nM.
Regarding QEILDLWVY, the 50% inhibitory concentration (IC50) stood at 52 nM in experiment [7] (setting [13]); 739 nM in [1] (setting [13]); 4520 nM in [2] (setting [13]); 264 nM in experiment [5] (setting [13]); 172 nM in [3] (setting [13]). Besides, the dissociation constant Kd in experiment [8] (setting [13]) came to 6260 nM.
As for RENANQLVV, the IC50 in experiment [7] (setting [14]) was 757 nM; in experiment [1] (setting [14]), 174 nM; in experiment [2] (setting [14]), 20 nM; in experiment [5] (setting [14]) it was 638 nM; in [3] (setting [14]) it was 480 nM; in experiment [4] (setting [14]), 37 nM.
For RETVLEYLV, the concentration for half-maximal inhibition (IC50) in experiment [1] (setting [12]) worked out at 412 nM; in experiment [2] (setting [12]) it was 36 nM; in experiment [3] (setting [12]), 4830 nM; in experiment [4] (setting [12]) it was 205 nM.
As to SENERGYYI, the IC50 in experiment [7] (setting [14]) was found to be 301 nM; in [1] (setting [14]), 3730 nM; in experiment [2] (setting [14]), 227 nM; in experiment [5] (setting [14]), 150 nM; in experiment [3] (setting [14]), 91 nM; in [4] (setting [14]), 336 nM.
With TERQANFL, the IC50 in experiment [7] (setting [13]) is 304 nM; in [1] (setting [13]), 223 nM; in [2] (setting [13]) it was 23 nM; in experiment [5] (setting [13]), 9050 nM; in [3] (setting [13]), 2210 nM. Besides, the Kd in [8] (setting [13]) amounted to 9720 nM.
Turning to VELLSFLPSDF, the half-inhibitory concentration (IC50) in [7] (setting [12]) was found to be 414 nM; in [2] (setting [12]) it was 480 nM; in experiment [5] (setting [12]), 299 nM; in experiment [3] (setting [12]) it was 412 nM. In addition, the dissociation constant (Kd) came to 5560 nM in experiment [10] and 10400 nM in [8] (setting [12]).
For the sequence WEFVNTPPL, the concentration for half-maximal inhibition (IC50) in experiment [7] (setting [13]) was found to be 5.9 nM; in [1] (setting [13]) it was 2.5 nM; in experiment [2] (setting [13]) it was 8.6 nM; in [5] (setting [13]), 72 nM; in experiment [3] (setting [13]), 378 nM. For the same sequence, the dissociation constant Kd in experiment [8] (setting [13]) came out at 5210 nM.
